Source: article PMC3642092

Target: F-actin (filamentous rabbit skeletal muscle actin) (rabbit), P68135
Assay: co-sedimentation
Details: remark: other sources report otherwise

Kd: 19.2 µM
stoichiometry N: 1
B1: utrophin actin binding domain, utrophin residues 1-261 (UTR261), wildtype, P46939 1-261 (domain or fragment)
chain: MAKYGEHEASPDNGQNEFSDIIKSRSDEHNDVQKKTFTKWINARFSKSGKPPINDMFTDLKDGRKLLDLLEGLTGTSLPKERGSTRVHALNNVNRVLQVLHQNNVELVNIGGTDIVDGNHKLTLGLLWSIILHWQVKDVMKDVMSDLQQTNSEKILLSWVRQTTRPYSQVNVLNFTTSWTDGLAFNAVLHRHKPDLFSWDKVVKMSPIERLEHAFSKAQTYLGIEKLLDPEDVAVQLPDKKSIIMYLTSLFEVLPQQVTID
